Measurements taken from PMC3018788 (The EMBO Journal, 2010).

Experiments:
[1] = biological target: recombinant MBP-tagged HsPABPC1 (human, UniProt P11940 1-636); experiment: pull-down
[2] = biological target: recombinant MBP-tagged DmPABPC1 (D. melanogaster, UniProt P21187 1-634); experiment: pull-down
Sequence of recombinant MBP-tagged DmPABPC1 (P21187 whole entry): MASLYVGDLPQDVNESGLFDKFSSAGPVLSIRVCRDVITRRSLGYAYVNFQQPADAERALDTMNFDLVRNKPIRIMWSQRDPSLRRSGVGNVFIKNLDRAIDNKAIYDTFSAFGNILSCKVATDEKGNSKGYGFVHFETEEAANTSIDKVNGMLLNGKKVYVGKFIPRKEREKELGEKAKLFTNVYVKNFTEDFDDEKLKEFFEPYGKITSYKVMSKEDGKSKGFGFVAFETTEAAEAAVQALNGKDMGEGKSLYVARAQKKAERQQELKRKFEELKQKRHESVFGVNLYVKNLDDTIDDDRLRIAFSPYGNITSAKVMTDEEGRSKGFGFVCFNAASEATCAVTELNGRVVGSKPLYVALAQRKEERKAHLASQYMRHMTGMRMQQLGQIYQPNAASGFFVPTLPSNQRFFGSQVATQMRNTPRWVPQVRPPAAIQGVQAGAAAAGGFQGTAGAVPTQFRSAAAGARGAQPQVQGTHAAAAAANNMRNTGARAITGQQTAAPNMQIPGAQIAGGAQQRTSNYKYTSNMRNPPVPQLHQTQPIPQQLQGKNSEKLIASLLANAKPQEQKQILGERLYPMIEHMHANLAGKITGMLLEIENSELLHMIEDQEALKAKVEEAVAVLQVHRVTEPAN

Sequence of recombinant MBP-tagged HsPABPC1 (P11940 whole entry): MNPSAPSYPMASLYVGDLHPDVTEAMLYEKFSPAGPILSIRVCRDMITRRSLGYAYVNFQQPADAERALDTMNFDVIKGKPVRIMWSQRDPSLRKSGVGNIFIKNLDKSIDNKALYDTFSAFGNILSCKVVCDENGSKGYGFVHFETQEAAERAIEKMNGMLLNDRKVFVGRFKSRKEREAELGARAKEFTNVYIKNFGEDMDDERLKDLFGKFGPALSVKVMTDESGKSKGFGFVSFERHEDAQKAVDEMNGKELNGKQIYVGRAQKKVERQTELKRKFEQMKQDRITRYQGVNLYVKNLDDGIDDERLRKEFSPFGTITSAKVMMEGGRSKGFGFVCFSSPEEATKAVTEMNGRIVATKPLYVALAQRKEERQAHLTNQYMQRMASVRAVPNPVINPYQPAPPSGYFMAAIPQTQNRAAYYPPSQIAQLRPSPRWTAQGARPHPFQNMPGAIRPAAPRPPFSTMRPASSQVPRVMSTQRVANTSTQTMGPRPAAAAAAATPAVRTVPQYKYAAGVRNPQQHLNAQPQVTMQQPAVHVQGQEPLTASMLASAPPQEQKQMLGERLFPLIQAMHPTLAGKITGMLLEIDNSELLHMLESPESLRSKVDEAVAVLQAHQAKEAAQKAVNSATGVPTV

B1: GST-TNRC6B-SD (domain or fragment, human, UniProt Q9UPQ9-1 1361-1723, looked up)
chain: SSNASWPPEFQPGVPWKGIQNIDPESDPYVTPGSVLGGTATSPIVDTDHQLLRDNTTGSNSSLNTSLPSPGAWPYSASDNSFTNVHSTSAKFPDYKSTWSPDPIGHNPTHLSNKMWKNHISSRNTTPLPRPPPGLTNPKPSSPWSSTAPRSVRGWGTQDSRLASASTWSDGGSVRPSYWLVLHNLTPQIDGSTLRTICMQHGPLLTFHLNLTQGTALIRYSTKQEAAKAQTALHMCVLGNTTILAEFATDDEVSRFLAQAQPPTPAATPSAPAAGWQSLETGQNQSDPVGPALNLFGGSTGLGQWSSSAGGSSGADLAGASLWGPPNYSSSLWGVPTVEDPHRMGSPAPLLPGDLLGGGSDSI
**Q.** Does B1 bind [1]?
**A.** binds

B2: GST-GW182-SD (domain or fragment, D. melanogaster, UniProt Q8SY33 937-1384, looked up)
chain: NENKDWSVAQPTSAATAYTDLVQEFEPGKPWKGSQIKSIEDDPSITPGSVARSPLSINSTPKDADIFANTGKNSPTDLPPLSLSSSTWSFNPNQNYPSHSWSDNSQQCTATSELWTSPLNKSSSRGPPPGLTANSNKSANSNASTPTTITGGANGWLQPRSGGVQTTNTNWTGGNTTWGSSWLLLKNLTAQIDGPTLRTLCMQHGPLVSFHPYLNQGIALCKYTTREEANKAQMALNNCVLANTTIFAESPSENEVQSIMQHLPQTPSSTSSSGTSGGNVGGVGTSANNANSGSAACLSGNNSGNGNGSASGAGSGNNGNSSCNNSAAGGGSSSNNTITTVANSNLVGSSGSVSNSSGVTANSSTVSVVSCTASGNSINGAGTANSSGSKSSANNLASGQSSASNLTNSTNSTWRQTSQNQALQSQSRPSGREADFDYISLVYSIVDD
**Q.** Does B2 bind [2]?
**A.** binds
